# According to article PMC10322703 (Nature Microbiology, 2023):
# Target: SNV Gn^H, recombinant histidine-tagged N-terminal ectodomain region (head domain) of Sin Nombre viru (Sin Nombre virus, UniProt Q89905)
# Test: BLI
# Settings: both partners purified
Binder,Kd,koff,kon
"SNV-42, human monoclonal antibody (IgG1) (antibody, V domains shown) VH: EVQLVESGGGLVQPGGSLRLSCAASGFTFSTYEMNWVRQAPGKGLEWVSYIRSSGSTVYYADSVKGRFTISRDNAKNLLYLQMNSLRAGDTAVYYCARIPGGYTGYFDYWGQGALVTVSS VL: QSVLTQPPSVSGAPGQRVTISCTGSSSNIGAGYYVHWYQQLPGTVPKLLIYGNNNRPSGVPDRFSGSKSGTSASLAITGLQTEDEADYYCQSYDSSLSGWVFGGGTKLTVL",< 0.001 nM,< 1e-07 s⁻¹,132000 M⁻¹ s⁻¹
SNV-42 F(ab')2 (other) chain 1: EVQLVESGGGLVQPGGSLRLSCAASGFTFSTYEMNWVRQAPGKGLEWVSYIRSSGSTVYYADSVKGRFTISRDNAKNLLYLQMNSLRAGDTAVYYCARIPGGYTGYFDYWGQGALVTVSS chain 2: QSVLTQPPSVSGAPGQRVTISCTGSSSNIGAGYYVHWYQQLPGTVPKLLIYGNNNRPSGVPDRFSGSKSGTSASLAITGLQTEDEADYYCQSYDSSLSGWVFGGGTKLTVL,< 0.001 nM,< 1e-07 s⁻¹,61400 M⁻¹ s⁻¹
"SNV-42^GR, germline-revertant form of SNV-42 (IgG1) (antibody, V domains shown) VH: EVQLVESGGGLVQPGGSLRLSCAASGFTFSSYEMNWVRQAPGKGLEWVSYISSSGSTIYYADSVKGRFTISRDNAKNSLYLQMNSLRAEDTAVYYCARIPGGYSGYFDYWGQGTLVTVSS VL: QSVLTQPPSVSGAPGQRVTISCTGSSSNIGAGYDVHWYQQLPGTAPKLLIYGNSNRPSGVPDRFSGSKSGTSASLAITGLQAEDEADYYCQSYDSSLSGWVFGGGTKLTVL",0.811 nM,0.000454 s⁻¹,514000 M⁻¹ s⁻¹
"SNV-42 Fab (Fab, V domains shown) VH: EVQLVESGGGLVQPGGSLRLSCAASGFTFSTYEMNWVRQAPGKGLEWVSYIRSSGSTVYYADSVKGRFTISRDNAKNLLYLQMNSLRAGDTAVYYCARIPGGYTGYFDYWGQGALVTVSS VL: QSVLTQPPSVSGAPGQRVTISCTGSSSNIGAGYYVHWYQQLPGTVPKLLIYGNNNRPSGVPDRFSGSKSGTSASLAITGLQTEDEADYYCQSYDSSLSGWVFGGGTKLTVL",,0.00561 s⁻¹,139000 M⁻¹ s⁻¹
